B1: TioT (natural protein)
chain: MSVNPFDDEDGEFYVLVNDEEQHSLWPTFGDVPDGWRIVFGPAGRAESVAYVEENWTDMRPKSLREAMSAA
B2: CouY (natural protein)
chain: MATNPFDDENGVYLLLVNDEGQHSLWPSFAALPKGWTVILDEASRQECLDYVNEHWTDMRPLSLQPAMGDE
B3: MbtH (natural protein)
chain: MSTNPFDDDNGAFFVLVNDEDQHSLWPVFADIPAGWRVVHGEASRAACLDYVEKNWTDLRPKSLRDAMAED

What was measured:
[1] = biological target: TioK-Ecm8 complex (not stated | Streptomyces lasaliensis); assay: AUC
[2] = biological target: TioK-MyavAcA complex (not stated | Mycobacterium avium); assay: AUC
[3] = biological target: TioK-MypaAaA complex (not stated | Mycobacterium paratuberculosis); assay: AUC
TioK-TioT complex = TioK-TioT complex (UniProt Q333U6); assay: AUC
TioK [4] = assay: AUC
[5] = biological target: TioK-MbtH complex (not stated | Mycobacterium tuberculosis H37Rv) (UniProt P9WIP4); assay: […]
[6] = biological target: TioK-KtzJ complex (not stated | Kutzneria sp. 744); assay: AUC
[7] = biological target: TioK-MyabAaA complex (not stated | Mycobacterium abscessus); assay: AUC
[8] = biological target: TioK-MymaAcA complex (not stated | Mycobacterium marinum); assay: AUC
TioK [9] = assay: […]

Molecule	approximate mole fraction of TioK-MLP complex (TioK [4])	stoichiometry N (TioK [4]) [MLP per TioK]	other results
TioK-Ecm8 complex			stoichiometry N (multiple of MW(1:1)) [1]: 1.93
TioK-MyavAcA complex			stoichiometry N (multiple of MW(1:1)) [2]: 1.96
TioK-MypaAaA complex			stoichiometry N (multiple of MW(1:1)) [3]: 2.05
TioK-TioT complex (from UniProt Q333U6 1-71)			stoichiometry N (multiple of MW(1:1)) (TioK-TioT complex): 1.98
KtzJ (natural protein)	0.92	1	
PA2412 (from UniProt Q9I169 1-72) (natural protein)	0.87	1	
TioK-MbtH complex (from UniProt P9WIP4 1-71)			stoichiometry N (multiple of MW(1:1)) [5]: 2.06
TioK-KtzJ complex			stoichiometry N (multiple of MW(1:1)) [6]: 1.92
TioK-MyabAaA complex			stoichiometry N (multiple of MW(1:1)) [7]: 1.96
TioK-MymaAcA complex			stoichiometry N (multiple of MW(1:1)) [8]: 1.94
Ecm8 (natural protein)	0.76	1	
B1	0.88	1	
B2	0.84	1	
B3			approximate mole fraction of TioK-MLP complex (TioK [9]): 0.82; stoichiometry N (TioK [9]): 1 MLP per TioK

— publication PMC6439349
